In general, stoichiometry N refers to the number of molecules, sites or subunits per partner or assembly.

The source of these data is publication PMC3095675 (Journal of molecular biology, 2011).

Data set [1] addresses Cp149.G123A (Hepatitis B virus) (UniProt P03147). Nature of the data set: SEC.
Data set [2] shares this target. Nature of the data set: AUC.
The target in data set [3] is Cp149.G123A.T114A (Hepatitis B virus) (UniProt P03147). Briefly: AUC.
Data set [4] addresses Cp149.R127A (Hepatitis B virus) (UniProt P03147). Briefly: AUC.
In data set [5] the target is Cp149.R127A.G123A (Hepatitis B virus) (UniProt P03147). Nature of the data set: AUC.
Data set [6] has as its target Cp149.S141A (Hepatitis B virus) (UniProt P03147). Briefly: AUC.
For data set [7], the target named is Cp149.T114A (Hepatitis B virus) (UniProt P03147). Briefly: AUC.
Data set [8] addresses Cp149.Y132A (Hepatitis B virus) (UniProt P03147). Nature of the data set: AUC.
The target of data set [9] is Cp149.Y132A.G123A.R127A (Hepatitis B virus) (UniProt P03147). Briefly: AUC.
For data set [10], the target named is Cp(−10)149.5A (Hepatitis B virus) (UniProt P03147). Briefly: cross-linking.
The target in data set [11] is Cp(−10)149.G123A (Hepatitis B virus) (UniProt P03147). Briefly: AUC.
Data set [12] addresses Cp(−10)149d.C(−7)A.C61.C48A.C107A (Hepatitis B virus) (UniProt P03147). Nature of the data set: cross-linking.
For data set [13] the target is unchanged. Nature of the data set: AUC.
Data set [14] deals with the molecule itself. Briefly: cross-linking.
Data set [15] concerns the molecule itself. Briefly: AUC.

As to “Cp149.G123A (from UniProt P03147 1-149) (domain or fragment)”, the stoichiometry N in [1] and in data set [2] was 2 in each case.
In the case of “Cp149.G123A.T114A (from UniProt P03147 1-149) (domain or fragment)”, in [3], the stoichiometry N was 2.
Regarding “Cp149.R127A (from UniProt P03147 1-149) (domain or fragment)”, the stoichiometry N in data set [4] came out at 2.
For “Cp149.R127A.G123A (from UniProt P03147 1-149) (domain or fragment)”, the stoichiometry N in data set [5] came to 2.
“Cp149.S141A (from UniProt P03147 1-149) (domain or fragment)” registered a stoichiometry N in [6] of 2.
“Cp149.T114A (from UniProt P03147 1-149) (domain or fragment)”: the stoichiometry N in data set [7] was determined as 2.
Regarding “Cp149.Y132A (from UniProt P03147 1-149) (domain or fragment)”, the stoichiometry N in data set [8] worked out at 2.
Molecule “Cp149.Y132A.G123A.R127A (from UniProt P03147 1-149) (domain or fragment)” gave a stoichiometry N in data set [9] of 2.
Molecule “Cp(−10)149.5A (from UniProt P03147 1-149) (natural protein)” had a stoichiometry N in [10] of 2.
“Cp(−10)149.G123A (from UniProt P03147 1-149) (natural protein)”: in data set [11], the stoichiometry N turned out to be 2.
Consider “Cp(−10)149d.C(−7)A.C61.C48A.C107A (from UniProt P03147 1-149) (natural protein)”, for which the stoichiometry N in data set [12] and in [13] was 2 in each case.

B1: Cp149.4A (domain or fragment)
chain: MDIDPYKEFGATVELLSFLPSDFFPSVRDLLDTAAALYRDALESPEHASPHHTALRQAILCWGDLMTLATWVGTNLEDPASRDLVVSYVNTNVGLKFRQLLWFHISALTFGRETVLEYLVSFAVWIATPPAYRPPNAPILSTLPETTVV
For B1, the “stoichiometry N” value in data set [14] was 2.

B2: Cp141 (domain or fragment)
chain: MDIDPYKEFGATVELLSFLPSDFFPSVRDLLDTAAALYRDALESPEHCSPHHTALRQAILCWGDLMTLATWVGTNLEDPASRDLVVSYVNTNVGLKFRQLLWFHISCLTFGRETVLEYLVSFGVWIRTPPAYRPPNAPILS
For B2, in data set [15], the “stoichiometry N” value was determined as 2.

B3: Cp143 (domain or fragment)
chain: MDIDPYKEFGATVELLSFLPSDFFPSVRDLLDTAAALYRDALESPEHCSPHHTALRQAILCWGDLMTLATWVGTNLEDPASRDLVVSYVNTNVGLKFRQLLWFHISCLTFGRETVLEYLVSFGVWIRTPPAYRPPNAPILSTL
Take B3: in data set [15], the “stoichiometry N” value came to 2.
